The values below come from patent US20180334496A1 (KODIAK SCIENCES, published 2018).

Assay [1] concerns the target human Complement Factor D (serum purified) (human, UniProt P00746 26-253). As to the kind of experiment: cell-based or functional assay.
Assay [2] deals with T1, serum purified human Complement Factor D (human, UniProt P00746 26-253).
T1 construct: Serum purified protein flowed over the captured antibodies; also called CFD; human CFD
As to the kind of experiment: SPR Biacore, 25 C.

Assay [3] has as its target T1, serum purified human Complement Factor D. As to the kind of experiment: SPR Biacore, antibody on protein A chip, single cycle kinetics, 37 C.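 Further: antibodies captured on the protein A surface to roughly 70 RU in HBS-EP+ buffer, with rate and affinity constants fitted using BIAevaluation software.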
For assay [4] the target is unchanged. In words: SPR Biacore, 37 C.
For assay [5] the target is unchanged. As to the kind of experiment: SPR Biacore, antibody on protein A chip, single cycle kinetics, 25 C.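 Further: antibodies captured to roughly 70 RU on the protein A surface in HBS-EP+ running buffer, with kinetic constants derived by BIAevaluation fitting.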
Assay [6] deals with T2, human complement factor D purified from serum (human, UniProt P00746 26-253).
T2 construct: serum-purified (CompTech); also called hCFD-Comptech; CFD

Assay [7] concerns the target T3, recombinant cynomolgus CFD, His-tagged (cynomolgus).
T3 construct: also called rcyCFD-His; recombinant Cyno-CFD
In words: SPR MX96.

Assay [8] concerns the target T4, recombinant human CFD mutant 1 (R157A, R207A), His-tagged (human, UniProt P00746 26-253).
T4 construct: positions are linear positions in the mature protein; also called rhCFD-mut1-His; Mut1
As to the kind of experiment: SPR MX96.

Assay [9] deals with T2, human complement factor D purified from …. As to the kind of experiment: SPR MX96.
For assay [10], the target named is T5, recombinant human CFD, His-tagged (human, UniProt P00746 26-253).
T5 construct: also called rhCFD-His
In words: SPR MX96.

For assay [11], the target named is T2, human complement factor D purified from …. In words: cell-based or functional assay.
In assay [12] the target is T4, recombinant human CFD mutant 1 (R157A, …). In words: ELISA.
Assay [13] concerns the target T2, human complement factor D purified from …. This is another data set of the same source.
Assay [14] shares this target. In words: cell-based or functional assay. This is another data set of the same source.
Assay [15] concerns the target T4, recombinant human CFD mutant 1 (R157A, …). As to the kind of experiment: ELISA. This is another data set of the same source.

Residue numbers refer to the chain shown, from its start. “And” between values parts separate entries of the source, which are not always exact repeats. Identical values can stand only once. Like-named read-outs stand apart in the source and are kept apart here.
Wherever CFD Enzymatic activity (% of Neg Ctrl) is given: test concentration or dose not given here.

T5 sequence (P00746 26-253 limits assumed): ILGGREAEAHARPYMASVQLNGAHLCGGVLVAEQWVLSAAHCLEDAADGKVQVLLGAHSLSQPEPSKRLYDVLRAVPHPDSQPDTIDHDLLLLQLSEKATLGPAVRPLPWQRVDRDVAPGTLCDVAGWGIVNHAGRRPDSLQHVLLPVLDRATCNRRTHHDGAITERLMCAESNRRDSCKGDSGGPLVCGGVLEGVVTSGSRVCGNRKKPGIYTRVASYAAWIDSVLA
T1 sequence (P00746 26-253): as the sequence (P00746 26-253 limits assumed) above
Chain of human Complement Factor D (serum purified) (P00746 26-253): as the sequence (P00746 26-253 limits assumed) above
T2 sequence (P00746 26-253): as the sequence (P00746 26-253 limits assumed) above
T4 sequence (P00746 26-253 R182A/R232A limits assumed): as the sequence (P00746 26-253 limits assumed) above, with R157A, R207A counted along it

B1: KCD119 TAF (antibody, V domains shown)
VH: EVQLVESGGGLVQPGGSLRLSCAASGYTFTDYYMNWVRQAPGKGLEWIGDINPNTGDTSYNADFKRRFTFSLDTSKSTAYLQMNSLRAEDTAVYYCTREGPSFAYWGQGTLVTVSS
VL: DIQLTQSPSSLSASVGDRVTITCRSSQTIVHSNGDTYLEWYQQKPGKAPNLLIYKVSNRFSGVPSRFSGSGSGTDFTLTISSLQPEDFATYYCFQGSHVPPTFGQGTKVEIK
Turning to B1, in assay [1], the “% no ab control, CFD enzymatic activity on Z-L-Lys-SBzl” value (from here on “% no ab control”) stood at 19.6 % no ab control and the “Vmax (OD/sec), CFD enzymatic activity on Z-L-Lys-SBzl” value (shortened to “Vmax (OD/sec), CFD enzymatic activity”) came out at 0.408 OD/sec.

B2: 34I54V59D84S/54R101V (SEQ ID NO: 184) (antibody, V domains shown)
VH: B1 VH with M34I, N54V, S59D, N84S
VL: DIQLTQSPSSLSASVGDRVTITCRSSQTIVHSNGDTYLEWYQQKPGKAPNLLIRKVSNRFSGVPSRFSGSGSGTDFTLTISSLQPEDFATYYCFQGSHVPVTFGQGTKVEIKR
Turning to B2, in assay [1], the “% no ab control” value stood at 23.3 % no ab control and the “Vmax (OD/sec), CFD enzymatic activity” value stood at 0.486 OD/sec.

B3: 31S34I54V59D84S/54R101V (SEQ ID NO: 184) (antibody, V domains shown)
VH: B1 VH with D31S, M34I, N54V, S59D, N84S
VL: B2 VL
In the case of B3, in assay [1], the “% no ab control” value turned out to be 28.6 % no ab control and the “Vmax (OD/sec), CFD enzymatic activity” value worked out at 0.596 OD/sec.

B4: 54I59D / 54R101V (antibody, V domains shown)
VH: B1 VH with N54I, S59D
VL: B2 VL
notes: KCD119 TAF variant
In the case of B4, the Kd in [2] was 0.00572 nM; in assay [3] it was 0.0071 nM and 0.00543 nM and 0.00663 nM and 0.00792 nM; in assay [4], 0.00663 nM; in [5] it was 0.00642 nM and 0.00294 nM and 0.00572 nM and 0.00523 nM. The koff in assay [2] is 9.8e-05 s⁻¹; in [3], 0.000187 s⁻¹ and 0.000257 s⁻¹ and 0.000205 s⁻¹ and 0.0003 s⁻¹; in assay [4], 0.000205 s⁻¹; in assay [5], 7.04e-05 s⁻¹ and 5.95e-05 s⁻¹ and 9.8e-05 s⁻¹ and 9.5e-05 s⁻¹. Further, the kon in assay [2] was 1.71e+07 M⁻¹ s⁻¹; in assay [3] it was 2.64e+07 M⁻¹ s⁻¹ and 4.74e+07 M⁻¹ s⁻¹ and 3.09e+07 M⁻¹ s⁻¹ and 3.78e+07 M⁻¹ s⁻¹; in assay [4] it was 3.09e+07 M⁻¹ s⁻¹; in assay [5], 1.1e+07 M⁻¹ s⁻¹ and 2.02e+07 M⁻¹ s⁻¹ and 1.71e+07 M⁻¹ s⁻¹ and 1.82e+07 M⁻¹ s⁻¹.

B5: 34I54I59D / 54R101V (antibody, V domains shown)
VH: B1 VH with M34I, N54I, S59D
VL: B2 VL
notes: KCD119 TAF variant
Take B5: the Kd came out at 0.00562 nM in assay [2], 0.00808 nM in assay [3], 0.00808 nM in assay [4] and 0.00562 nM in [5]. Moreover, the koff was 0.000101 s⁻¹ in assay [2], 0.000264 s⁻¹ in assay [3], 0.000264 s⁻¹ in assay [4] and 0.000101 s⁻¹ in [5]. Further, the kon in [2] worked out at 1.8e+07 M⁻¹ s⁻¹; in assay [3], 3.27e+07 M⁻¹ s⁻¹; in assay [4] it was 3.27e+07 M⁻¹ s⁻¹; in assay [5], 1.8e+07 M⁻¹ s⁻¹.

B6: KCD042 (antibody, V domains shown)
VH: EVQLQQSGAELVKPGASVRLSCTASGFNIKHTYIHWVSQRPEQGLEWIGKIDPANGNTKYDPKFQGKATITADTSSNTAYLQLSSLTSEDTAVYYCVNAMEYWGQGTSVTVSS
VL: QSVLTQSPAIMSASPGEKVTMTCSANSSVSDMYWFQQRPGSSPRLLIYDTSNLASGVPVRFSGSGSGTSYSLTISRMEAEDAATYYCQQWSTYPWTFGGGTKLEIK
notes: chimeric
For the molecule B6, the Kd in [6] was found to be 1.09 nM; in assay [7], 3 nM; in assay [8] it was 0.42 nM; in [9] it was 1.4 nM; in [10], 1 nM. The “CFD Enzymatic activity (% of Neg Ctrl)” value in assay [11] is 6.8 % of Neg Ctrl. In addition, the “Mut1 Binding (% wt)” value in assay [12] amounted to 65.6 % wt.

B7: KCD047 (antibody, V domains shown)
VH: B6 VH with L11F, H31D, I34M, S38K, K50R, N57Y, Y60D, V97A, N98S, E101D
VL: QIVLTQSPAVMSASPGEKVAMTCSASSSVTYMYWYQQKPGSSPRLLIYDTSNLASGVPVRFSGSGSGTSYSLTISRMEAEDAATYYCQQWSTYPFPFGSGTKLEIK
notes: chimeric
For the molecule B7, the dissociation constant Kd in [6] is 6.62 nM; in assay [7] it was 160 nM; in [8], 2.9 nM; in [9] it was 4.4 nM; in assay [10], 3.4 nM. The “CFD Enzymatic activity (% of Neg Ctrl)” value in assay [11] was 47.3 % of Neg Ctrl. Moreover, the “Mut1 Binding (% wt)” value in [12] turned out to be 58.9 % wt.

B8: KCD040 (antibody, V domains shown)
VH: EVQLQQSGAELVKPGASVKLSCTASDFNIKDTYMHWVMQRPEQGLEWIGKIDPANGNTEFDPKFQGKATITADTSSNTAYLQLTSLTSEDTAVYYCTRAMDYWGQGTSVTVSS
VL: B6 VL with S2I, N26G, D31Y, F35Y, R38K, L45V, T92N, W95Y
notes: chimeric
As for B8, the Kd in [6] was 79.1 nM; in assay [7], 170 nM; in assay [8], 0.75 nM; in assay [9], 1.9 nM; in [10], 1.4 nM. For the same molecule, the “CFD Enzymatic activity (% of Neg Ctrl)” value in assay [11] was 13.7 % of Neg Ctrl. Besides, the “Mut1 Binding (% wt)” value in [12] came out at 62.2 % wt.

B9: KCD044 (antibody, V domains shown)
VH: B6 VH with I34M, Q43R, A79V, V97L
VL: B6 VL with F35Y
notes: chimeric
With B9, the Kd worked out at 1.02 nM in assay [6]; 6 nM in [7]; 0.96 nM in assay [8]; 2.6 nM in assay [9]; 1.8 nM in [10]. For the same molecule, the “CFD Enzymatic activity (% of Neg Ctrl)” value in assay [11] is 8.8 % of Neg Ctrl. In addition, the “Mut1 Binding (% wt)” value in assay [12] was determined as 62.5 % wt.

B10: KCD119 (antibody, V domains shown)
VH: EVQLQQSGPELVKPGASVKISCKASGYTFTDYYTNWMRQRHGESLEWIGDINPNTGDTSYNQKFRVKATLTVDKSSGTAYMGLRSLTSEDSAVYYCTREGPSFAYWGQGTLVTVSA
VL: DVLMTQTPLSLPVSLGDQASISCRSSQTIVHSNGDTYLEWYLQKPGQSPNLLIYKVSNRFSGVPDRFSGSGSGTDFTLKISRVEAEDLGVYYCFQGSHVPPTFGGGTTLEIK
notes: chimeric; also called Mouse KCD119
As for B10, the Kd in assay [13] is 0.0358 nM; in [7] it was 0.7 nM and 1.1 nM; in assay [9], 0.37 nM and 0.86 nM; in assay [10], 0.28 nM and 0.56 nM. The “CFD Enzymatic activity (% of Neg Ctrl)” value in assay [14] is 15.7 % of Neg Ctrl.

B11: Mouse KCD119 (antibody, V domains shown)
VH: B10 VH
VL: B10 VL
As to B11, in assay [1], the “% no ab control” value is 15.3 % no ab control and the “Vmax (OD/sec), CFD enzymatic activity” value was found to be 0.318 OD/sec.

B12: KCD124 (antibody, V domains shown)
VH: EVQLQQSGPELVKPGASVKISCKASGYTFTDHYMNWVKQSHGKSLEWIGDINPNNGGTSYNQKFKGKATLTVDKSSSTAYMELRSLTSGDSAVYYCTREGASFAFWGQGTLVTVSA
VL: B10 VL with T28S, N50K, P101L, G105A, T108K, I111L
notes: chimeric
Regarding B12, the Kd in assay [13] turned out to be 0.78 nM; in assay [7], 5.2 nM; in assay [9], 4.3 nM; in assay [10], 3.3 nM. Also, in [14], the “CFD Enzymatic activity (% of Neg Ctrl)” value is 19.7 % of Neg Ctrl. Further, the “Mut1 Binding (% wt)” value in [15] was -0.643 % wt.

B13: KCD208 (antibody, V domains shown)
VH: EVQLQQSVAELVRPGASVKLSCTVSGFNIKNTYMHWVKQRPEQGLEWIGRIDPANGDTTYAPKFQGKATITADTSSNSAYLHLSRLTSEDTAIYYCSLYDYDGYWGQGTTLTVSS
VL: EIVLTQSPALMAASPGEKVTITCSVSSSISSSSLHWYRQKSGTSPKPWIYGTSHLASGVPVRFSGSGSGTSYSLTISSMEAEDAATYYCQQWDTYPWTFGGGTKLEIK
notes: chimeric
With B13, the Kd in assay [6] came to 0.451 nM; in assay [7], 52 nM; in assay [8], 1.8 nM; in [9], 2.5 nM; in assay [10], 1.9 nM. Also, the “CFD Enzymatic activity (% of Neg Ctrl)” value in [11] was 0 % of Neg Ctrl. For the same molecule, the “Mut1 Binding (% wt)” value in assay [12] came to 56.7 % wt.

B14: KCD214 (antibody, V domains shown)
VH: B13 VH with L11F, V24A, D57N, T59E, S78T, H82Q, R85S, S97A
VL: B13 VL with S24R, R38Q, H54N, G67R, D93S, T94D
notes: chimeric
As to B14, the Kd in assay [6] stood at 0.245 nM; in assay [7] it was 26 nM; in assay [8], 1.3 nM; in [9], 1.6 nM; in assay [10] it was 1.1 nM. Moreover, in assay [11], the “CFD Enzymatic activity (% of Neg Ctrl)” value was 12.8 % of Neg Ctrl. Further, in assay [12], the “Mut1 Binding (% wt)” value came out at 44.3 % wt.
